# In paper PMC8257255, “Soluble Fas ligand drives autoantibody-induced arthritis by binding to DR5/TRAIL-R2” (eLife, 2021):
# B1: recombinant human soluble Fas ligand (His-tagged) (ligand, UniProt P48023 130-281, looked up)
# chain: QIGHPSPPPEKKELRKVAHLTGKSNSRSMPLEWEDTYGIVLLSGVKYKKGGLVINETGLYFVYSKVYFRGQSCNNLPLSHKVYMRNSKYPQDLVMMEGKMMSYCTTGQMWARSSYLGAVFNLTSADHLYVNVSELSLVNFEESQTFFGLYKL
# notes: Fas ligand (TNFSF6), human, soluble recombinant form; also called sFasL; rhFasL; source: bought: R&D Systems (126-FL)
# Molecular target: T1, Recombinant Human TRAIL R2/TNFRSF10B Fc Chimera Protein (human, UniProt O14763 56-210)
# T1 construct: TNFRSF10B (DR5, TRAIL R2), human, fused to Fc; also called rhDR5–Fc; DR5–Fc; source: bought: R&D Systems (631-T2)
# Experiment: SPR; Biacore T100; recombinant DR5 (R&D 631-T2-100) coupled to a CM5 chip in 10 mM sodium acetate pH 5.5; recombinant FasL or TRAIL passed over at 30 μL/min for 120 s; empty flow cell subtracted; equilibrium affinity measurements
# Settings: both partners purified
binder,measurement,value
B1,Kd,1.23 pM
